This is an account of results in patent publication US20190002560A1 (Alector, published 2019).

Assay [1] addresses T1, human CD33 (human, UniProt P20138 18-364). Put plainly: cell-based or functional assay.
Assay [2] deals with T1, human CD33. Nature of the assay: flow cytometry, human primary monocytes, 10 ug/ml antibody.
The target in assay [3] is T1, human CD33. Put plainly: flow cytometry, human primary macrophages, 10 ug/ml antibody. (In flow cytometry, cells or beads pass a laser one at a time.)
Assay [4] has as its target T1, human CD33. Put plainly: flow cytometry, human primary dendritic cells, 10 ug/ml antibody.
Assay [5] addresses T1, human CD33. Nature of the assay: flow cytometry, CHO cells expressing recombinant human CD33, 10 ug/ml antibody, PE secondary.
The next assay concerns the target CD33-Fc (human) (UniProt P20138). Nature of the assay: red blood cell solid adhesion assay, plate-bound CD33-Fc, antibody at 1.0 ug/ml; competitor: ligands on red blood cells; % of RBC binding without antibody.
A further assay deals with D18A. Nature of the assay: alanine-scanning library in HEK-293T cells, immunofluorescence by flow cytometry; mean of duplicates, mock-subtracted, normalised to wild-type CD33; range in parentheses.
D18A, sequence (receptor chain, as listed by the source D18A D18A limits assumed): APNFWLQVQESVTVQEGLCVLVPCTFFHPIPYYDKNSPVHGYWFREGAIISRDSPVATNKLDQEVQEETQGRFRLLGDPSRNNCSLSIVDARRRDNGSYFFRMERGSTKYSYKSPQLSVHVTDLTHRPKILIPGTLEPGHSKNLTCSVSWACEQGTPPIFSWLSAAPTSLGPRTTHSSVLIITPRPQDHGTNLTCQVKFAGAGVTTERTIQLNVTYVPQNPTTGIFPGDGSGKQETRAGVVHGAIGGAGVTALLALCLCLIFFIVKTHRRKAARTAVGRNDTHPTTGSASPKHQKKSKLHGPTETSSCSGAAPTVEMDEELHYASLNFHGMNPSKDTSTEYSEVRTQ
In another assay the target is F21A. The assay is described as above.
F21A, sequence (receptor chain, as listed by the source F21A F21A limits assumed): as the sequence (receptor chain, as listed by the source D18A D18A limits assumed) above, with A1D, F4A counted along it
For a further assay, the target named is F44A. Described as above.
F44A, sequence (receptor chain, as listed by the source F44A F44A limits assumed): as the sequence (receptor chain, as listed by the source D18A D18A limits assumed) above, with A1D, F27A counted along it
The next assay concerns the target K52A. The description is as above.
For a further assay, the target named is N20A. Described as above.
N20A, sequence (receptor chain, as listed by the source N20A N20A limits assumed): as the sequence (receptor chain, as listed by the source D18A D18A limits assumed) above, with A1D, N3A counted along it
Another assay concerns the target N53A. The assay is described as above.
The target of the next assay is P19A. Described as above.
P19A, sequence (receptor chain, as listed by the source P19A P19A limits assumed): as the sequence (receptor chain, as listed by the source D18A D18A limits assumed) above, with A1D, P2A counted along it
The target of another assay is P46A. The description is as above.
P46A, sequence (receptor chain, as listed by the source P46A P46A limits assumed): as the sequence (receptor chain, as listed by the source D18A D18A limits assumed) above, with A1D, P29A counted along it
A further assay has as its target Y49A. The description is as above.
In another assay the target is Y50A. The description is as above.
Y50A, sequence (receptor chain, as listed by the source Y50A Y50A limits assumed): as the sequence (receptor chain, as listed by the source D18A D18A limits assumed) above, with A1D, Y33A counted along it
Assay [6] has as its target histidine-tagged human CD33 (Sino Biological) (human, UniProt P20138 18-364). Put plainly: SPR (BiaCore T200, 25 C), antibody captured on anti-mouse IgG chip, 20 nM His-tagged CD33 in solution, single-concentration 1:1 fit; apparent KD. In general terms: In SPR one partner is held on a chip, and binding of the other changes the refractive index at the surface.
In assay [7] the target is T1, human CD33. Nature of the assay: flow cytometry binding curve on human primary dendritic cells, about 0.003-3 nM antibody.
Assay [8] deals with T1, human CD33. Put plainly: flow cytometry binding curve on human primary dendritic cells, about 0.003-3 nM antibody (FIG. 5H).

“And” between values parts separate entries of the source, which are not always exact repeats. Identical values can stand only once.

T1 sequence (P20138 18-364 limits assumed): as the sequence (receptor chain, as listed by the source D18A D18A limits assumed) above, with A1D counted along it
histidine-tagged human CD33 (Sino Biological), sequence (P20138 18-364): as the sequence (receptor chain, as listed by the source D18A D18A limits assumed) above, with A1D counted along it
K52A, sequence (receptor chain, as listed by the source K52A K52A limits assumed): as the sequence (receptor chain, as listed by the source D18A D18A limits assumed) above, with A1D, K35A counted along it
Y49A, sequence (receptor chain, as listed by the source Y49A Y49A limits assumed): as the sequence (receptor chain, as listed by the source D18A D18A limits assumed) above, with A1D, Y32A counted along it
N53A, sequence (receptor chain, as listed by the source N53A N53A limits assumed): as the sequence (receptor chain, as listed by the source D18A D18A limits assumed) above, with A1D, N36A counted along it

As for isotype mIgG1 control antibody, in the assay with human CD33 [1], the % CD33 surface expression, U937 cells (FACS, 1.0 ug/ml antibody, 24 h, % of no antibody) amounted to 95.7%; the % CD33 surface expression, human microglial cells (FACS, % of no antibody) worked out at 92.1%; the % CD33 surface expression, human primary dendritic cells (FACS, 1.0 ug/ml antibody, 24 h, % of no antibody) is 70.5%; the % CD33 surface expression, human primary macrophages (FACS, 1.0 ug/ml antibody, 24 h, % of no antibody) amounted to 95.4%. Moreover, the % CD33 surface expression, human primary monocytes (FACS, 1.0 ug/ml antibody, 24 h, % of no antibody) with human CD33 [1] amounted to 104%. In addition, in the assay with human CD33 [2], the % Positive amounted to 2.38% and the MFI amounted to 109. Also, in the assay with human CD33 [3], the % Positive stood at 4.16% and the MFI was 1220. In the assay with human CD33 [4], this molecule displayed a % Positive of 1.97% and an MFI of 861. Besides, in the assay with human CD33 [5], the % Positive is 0.47% and the MFI was 227. Further, in the assay with CD33-Fc (human), the Percent RBC Binding to CD33 turned out to be 83.8%.

In the case of WM53 MAb (antibody), the Binding Reactivity (% WT) with D18A stood at 98 % WT; with F21A, 137 % WT; in the assay with F44A it was 76.5 % WT; in the assay with K52A, 12.4 % WT; with N20A, 166 % WT; with N53A, 164 % WT. Moreover, the Binding Reactivity (% WT) with P19A is 116 % WT; in the assay with P46A, 152 % WT; with Y49A it was 1.7 % WT; with Y50A, 75.1 % WT.

B1: anti-CD33 antibody 1A8 (antibody, V domains shown)
VH: QVQLQQSGAELVKPGASVKLSCKASGYTFTSYDINWVRQRPEQGLEWIGWIFPGDGSTKYNEKFKGKATLTTDKSSNTTYMQLSRLTSEDSAVYFCARGYHYAMDSWGQGTSVTVSS
VL: DIKMTQSPSSMYESLGERVTITCKASQDINKYLSWLQQKPGKSPKTLIYRANRLVDGVPSRFSGSGSGQDYSLTISSLEYEDMGIYHCLQYDEFPLTFGAGTKLELK
notes: Mouse hybridoma antibody; mIgG1 served as isotype control; also called 1A8.2
For the molecule B1, the Percent RBC Binding to CD33 with CD33-Fc (human) worked out at 10%. Besides, the Kd in [6] was found to be 6 nM.

B2: anti-CD33 antibody gemtuzumab (antibody, V domains shown)
VH: EVQLVQSGAEVKKPGSSVKVSCKASGYTITDSNIHWVRQAPGQSLEWIGYIYPYNGGTDYNQKFKNRATLTVDNPTNTAYMELSSLRSEDTAFYYCVNGNPWLAYWGQGTLVTVSS
VL: DIQLTQSPSTLSASVGDRVTITCRASESLDNYGIRFLTWFQQKPGKAPKLLMYAASNQGSGVPSRFSGSGSGTEFTLTISSLQPDDFATYYCQQTKEVPWSFGQGTKVEVKR
notes: Commercially available antibody
For B2, in the assay with human CD33 [1], the “EC50 for reducing cell surface expression of CD33 (12-point 2-fold titration, FACS)” value was 0.107 nM. In the assay with human CD33 [7], this molecule yielded an EC50 of 0.613 nM. In addition, the Kd in assay [6] was 1.1 nM.

B3: anti-CD33 antibody 2F5 (antibody, V domains shown)
VH: EVQLQQSGPELVKPGASVKISCKASGYTFTDYNLHWVKLSHGKSLEWIGFIYPSNGITGYNQKFKNKATLTVDNSSSTAYMELRSLTSEDSAVYYCARSTVDYFDYWGQGTTLTVSS
VL: ZTQSLASLAVSLGQRATMSCRASQSVSTSTYSYMHWYQQKPGQPPKLLIKYASNLECGVPARFSGSGZGTDFTLNIHPVEEEDSATYYCQHSWEIPLTFGGGTKLEMK
notes: Mouse hybridoma antibody, tested under the label 2F5; also called C-2F5; 2F5 mAb
Molecule B3 yielded a % CD33 surface expression, U937 cells (FACS, 1.0 ug/ml antibody, 24 h, % of no antibody) with human CD33 [1] of 46.7%. Moreover, in the assay with human CD33 [1], the % CD33 surface expression, human microglial cells (FACS, % of no antibody) came out at 25%. Further, the % CD33 surface expression, human primary dendritic cells (FACS, 1.0 ug/ml antibody, 24 h, % of no antibody) with human CD33 [1] came out at 15.9%. The molecule also returned a % CD33 surface expression, human primary macrophages (FACS, 1.0 ug/ml antibody, 24 h, % of no antibody) in the assay with human CD33 [1] of 58.7%. In the assay with human CD33 [1], this molecule yielded a % CD33 surface expression, human primary monocytes (FACS, 1.0 ug/ml antibody, 24 h, % of no antibody) of 23.3%. Further, the EC50 for reducing cell surface expression of CD33 (12-point 2-fold titration, FACS) in the assay with human CD33 [1] amounted to 0.0215 nM. Besides, in the assay with human CD33 [1], the cell surface CD33 on hCD45+ hCD14+ blood cells of hu-NSGS mice (FACS, 40 mg/kg i.p.) amounted to 80%. Besides, in the assay with human CD33 [1], the cell surface CD33 on human primary monocytes at 0.001 ug/ml antibody (FACS, % of no antibody) is 50% and 30%. Also, the cell surface CD33 on human primary monocytes at 0.01 ug/ml antibody (FACS, % of no antibody) in the assay with human CD33 [1] was found to be 20%. The molecule further registered a cell surface CD33 on peripheral human CD45+ CD14+ monocytes of humanized NOG mice (FACS, single i.p. dose) with human CD33 [1] of 50%. Further, the fold improvement over gemtuzumab in reducing cell surface levels of CD33 on human primary monocytes with human CD33 [1] turned out to be 10 fold. This molecule registered a fold improvement over lintuzumab in reducing cell surface levels of CD33 on human primary monocytes with human CD33 [1] of 100 fold. Moreover, the % Positive in the assay with human CD33 [2] stood at 97.5%; in the assay with human CD33 [3] it was 96.7%; in the assay with human CD33 [4] it was 99%; with human CD33 [5], 87%. The MFI in the assay with human CD33 [2] worked out at 1200; in the assay with human CD33 [3], 2510; with human CD33 [4] it was 4300; in the assay with human CD33 [5] it was 9520. Also, the concentration giving a half-maximal response (EC50) with human CD33 [7] was 0.138 nM; with human CD33 [8], below 0.2 nM. The molecule also showed a Percent RBC Binding to CD33 with CD33-Fc (human) of 11.5%. The Kd in assay [6] came to 0.3 nM. Further, the Binding Reactivity (% WT) in the assay with D18A was found to be 79.5 % WT; with F21A, 122 % WT; in the assay with F44A it was 102 % WT; in the assay with K52A it was 8.9 % WT; with N20A it was 111 % WT; with N53A it was 78.2 % WT. Also, the Binding Reactivity (% WT) stood at 102 % WT in the assay with P19A, 105 % WT in the assay with P46A, 20.6 % WT with Y49A and 32.7 % WT in the assay with Y50A.

B4: anti-CD33 antibody lintuzumab (antibody, V domains shown)
VH: QVQLVQSGAEVKKPGSSVKVSCKASGYTFTDYNMHWVRQAPGQGLEWIGYIYPYNGGTGYNQKFKSKATITADESTNTAYMELSSLRSEDTAVYYCARGRPAMDYWGQGTLVTVSS
VL: DIQMTQSPSSLSASVGDRVTITCRASESVDNYGISFMNWFQQKPGKAPKLLIYAASNQGSGVPSRFSGSGSGTDFTLTISSLQPDDFATYYCQQSKEVPWTFGQGTKVEIKR
notes: as for B2
B4: the EC50 with human CD33 [7] was 0.845 nM.

As a reminder, the EC50 is the midpoint of the concentration-response curve. A higher EC50 goes with lower potency in that assay.
